Legend:
[1] = molecular target: GPC3 expressed on hepatoma cell line HepG2 (human) (UniProt P51654); test: flow cytometry on HepG2 cells, secondary antibody alone (background control); median fluorescence
[2] = molecular target: GPC3 expressed on hepatoma cell line HepG2 (human) (UniProt P51654); test: flow cytometry on HepG2 cells, secondary antibody alone (background control); mean fluorescence

Sequence of GPC3 expressed on hepatoma cell line HepG2 (human) (P51654 25-554 limits assumed): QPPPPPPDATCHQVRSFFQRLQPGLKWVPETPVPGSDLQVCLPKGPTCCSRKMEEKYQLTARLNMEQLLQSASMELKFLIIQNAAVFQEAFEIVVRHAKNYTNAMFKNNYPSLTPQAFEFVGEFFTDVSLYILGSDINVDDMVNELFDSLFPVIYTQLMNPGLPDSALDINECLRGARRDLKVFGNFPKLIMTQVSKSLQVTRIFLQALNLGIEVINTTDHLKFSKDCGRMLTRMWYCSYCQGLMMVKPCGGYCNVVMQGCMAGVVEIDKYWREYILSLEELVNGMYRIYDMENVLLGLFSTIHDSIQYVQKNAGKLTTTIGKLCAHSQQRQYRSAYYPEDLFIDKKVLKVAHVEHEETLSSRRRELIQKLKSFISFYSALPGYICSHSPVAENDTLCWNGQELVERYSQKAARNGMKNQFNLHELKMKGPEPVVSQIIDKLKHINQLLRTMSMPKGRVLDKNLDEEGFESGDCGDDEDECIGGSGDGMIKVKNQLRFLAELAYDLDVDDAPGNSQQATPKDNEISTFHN

Q: Which Median [1] does the source give for “PE-conjugated goat anti-mouse IgG (Biolegend Inc., cat #405307) (antibody)” here?
A: 205

Q: And the Mean [2]?
A: 243

Source: patent US20240018262A1
